For orientation: Kd means a measure of binding affinity in units of concentration.

In data set [1] the target is T1, MBP-FPARRM-His (three RRM domains of FPA) (Arabidopsis thaliana, UniProt Q8LPQ9 1-307).
T1 sequence: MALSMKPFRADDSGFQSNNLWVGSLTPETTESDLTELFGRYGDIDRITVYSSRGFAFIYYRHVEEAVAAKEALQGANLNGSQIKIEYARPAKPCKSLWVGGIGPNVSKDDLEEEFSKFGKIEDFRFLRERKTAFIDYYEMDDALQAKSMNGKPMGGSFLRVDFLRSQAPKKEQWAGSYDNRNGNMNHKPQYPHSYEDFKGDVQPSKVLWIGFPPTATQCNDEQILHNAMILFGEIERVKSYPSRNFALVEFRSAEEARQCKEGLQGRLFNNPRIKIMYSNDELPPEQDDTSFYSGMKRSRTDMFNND
In words: EMSA; 2 nM probe, 2000 nM protein; EMSA: 10 mM HEPES-KOH pH 7.3, 20 mM KCl, 1 mM MgCl2, 1 mM DTT, 5% glycerol, 0.1 ug/uL tRNA, room temperature 30 min (protein eluted with 200 mM imidazole); ITC: 10 mM HEPES-KOH pH 8.0, 150 mM NaCl, 200 mM imidazole, 25 C. As to conditions: protein: recombinant; tags: MBP (pMAL-c2x), 6xHis; label: Biotin at both ends. (In general: A gel shift assay detects complexes by their altered migration in electrophoresis.)

Data set [2] has as its target T1, MBP-FPARRM-His (three RRM domains of …). Description: ITC; 25 C, 150 mM NaCl, pH 8.0; EMSA: 10 mM HEPES-KOH pH 7.3, 20 mM KCl, 1 mM MgCl2, 1 mM DTT, 5% glycerol, 0.1 ug/uL tRNA, room temperature 30 min (protein eluted with 200 mM imidazole); ITC: 10 mM HEPES-KOH pH 8.0, 150 mM NaCl, 200 mM imidazole, 25 C. The conditions noted are these: protein: recombinant; tags: MBP (pMAL-c2x), 6xHis.

Data set [3] has as its target T2, MBP-FCARRM-His (RRM domains of FCA) (UniProt O04425 1-343).
T2 sequence: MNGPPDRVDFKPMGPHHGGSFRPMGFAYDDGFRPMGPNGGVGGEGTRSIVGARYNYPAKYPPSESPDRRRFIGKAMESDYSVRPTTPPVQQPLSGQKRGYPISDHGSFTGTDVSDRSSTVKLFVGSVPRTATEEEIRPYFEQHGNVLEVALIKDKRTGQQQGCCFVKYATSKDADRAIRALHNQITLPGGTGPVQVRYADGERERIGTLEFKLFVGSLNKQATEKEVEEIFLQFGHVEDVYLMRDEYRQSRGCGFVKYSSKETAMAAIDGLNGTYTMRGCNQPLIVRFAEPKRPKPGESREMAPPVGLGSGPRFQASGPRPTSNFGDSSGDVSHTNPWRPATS
In words: competition; unlabeled GU-rich competes labeled GU-rich probe; EMSA: 10 mM HEPES-KOH pH 7.3, 20 mM KCl, 1 mM MgCl2, 1 mM DTT, 5% glycerol, 0.1 ug/uL tRNA, room temperature 30 min (protein eluted with 200 mM imidazole); ITC: 10 mM HEPES-KOH pH 8.0, 150 mM NaCl, 200 mM imidazole, 25 C. As to conditions: protein: recombinant; tags: MBP (pMAL-c2x), 6xHis.

The target of data set [4] is T2, MBP-FCARRM-His (RRM domains of FCA). In words: EMSA; 2 nM probe, 600 nM protein; EMSA: 10 mM HEPES-KOH pH 7.3, 20 mM KCl, 1 mM MgCl2, 1 mM DTT, 5% glycerol, 0.1 ug/uL tRNA, room temperature 30 min (protein eluted with 200 mM imidazole); ITC: 10 mM HEPES-KOH pH 8.0, 150 mM NaCl, 200 mM imidazole, 25 C. As to conditions: protein: recombinant; tags: MBP (pMAL-c2x), 6xHis; label: Biotin at both ends.

Data set [5] addresses T1, MBP-FPARRM-His (three RRM domains of …). The data set is described as above. The conditions noted are these: protein: recombinant; tags: MBP (pMAL-c2x), 6xHis; label: Biotin at both ends.

B1: UC-rich probe (antisense of GA-rich; EMSA, biotin) (ssRNA)
RNA: UUCUCUUCUUCUCUUCUUCUCUUC
B1: the binding result in data set [1] is listed as “no binding”.

B2: GU-rich RNA (unlabeled; ITC and competitor) (ssRNA)
RNA: GUUGUUUUGUUUGUUGUUUUGUUU
For B2, the figures for the binding result in data set [2] and in data set [3] were “no binding” and “binds”, respectively.

B3: GA-rich RNA (unlabeled; ITC and competitor) (ssRNA)
RNA: GAAGAGAAGAAGAGAAGAAGAGAA
In the case of B3, the Kd in data set [2] was approximately 20 µM.

B4: GU-rich probe (EMSA, biotin) (ssRNA)
RNA: GUUGUUUUGUUUGUUGUUUUGUUU
Take B4: the binding result in data set [4] was “binds”; in data set [5] it was “no binding”.

The record behind these values is paper PMC12591160, “Polyadenylation Complex CFII Recognizes Downstream Cis‐element for Pre‐mRNA Polyadenylation Through Interaction with an RNA‐Binding Protein in Arabidopsis”.
